The target in data set [1] is T1, Gk-S15 (ribosomal protein S15) (Geobacillus kaustophilus, UniProt Q5L0I3 1-89). Nature of the data set: filter binding; Fmax 44%; poor 1:1 fit; SELEX Binding Buffer A: 50 mM Tris/acetate pH 7.5, 20 mM Mg-acetate, 270 mM KCl, 5 mM DTT, 0.02% BSA, 25 C, 30 min; filter binding (nitrocellulose/nylon) as previously described. Conditions: protein: recombinant; tags: expressed from pET-HT; label: 5'-32P.

The target in data set [2] is T1, Gk-S15 (ribosomal protein S15). The experiment in a line: filter binding; Fmax 0.56; text says abolished; SELEX Binding Buffer A: 50 mM Tris/acetate pH 7.5, 20 mM Mg-acetate, 270 mM KCl, 5 mM DTT, 0.02% BSA, 25 C, 30 min; filter binding (nitrocellulose/nylon) as previously described. Conditions: protein: recombinant; tags: expressed from pET-HT; label: 5'-32P; H1 disrupted.

Data set [3] shares this target. Nature of the data set: filter binding; Fmax 0.71; SELEX Binding Buffer A: 50 mM Tris/acetate pH 7.5, 20 mM Mg-acetate, 270 mM KCl, 5 mM DTT, 0.02% BSA, 25 C, 30 min; filter binding (nitrocellulose/nylon) as previously described. Conditions: protein: recombinant; tags: expressed from pET-HT; label: 5'-32P; H2 disrupted.
Data set [4] has the same target. Nature of the data set: filter binding; Fmax 0.85; SELEX Binding Buffer A: 50 mM Tris/acetate pH 7.5, 20 mM Mg-acetate, 270 mM KCl, 5 mM DTT, 0.02% BSA, 25 C, 30 min; filter binding (nitrocellulose/nylon) as previously described. The conditions noted are these: protein: recombinant; tags: expressed from pET-HT; label: 5'-32P; H1 restored.
Data set [5] shares this target. Nature of the data set: filter binding; Fmax 70%; SELEX Binding Buffer A: 50 mM Tris/acetate pH 7.5, 20 mM Mg-acetate, 270 mM KCl, 5 mM DTT, 0.02% BSA, 25 C, 30 min; filter binding (nitrocellulose/nylon) as previously described. Conditions: protein: recombinant; tags: expressed from pET-HT; label: 5'-32P; helices H1-H3.
Data set [6] concerns the target T2, Tt-S15 (ribosomal protein S15) (Thermus thermophilus, UniProt Q5SJ76 1-89). The experiment in a line: filter binding; Fmax 78%; SELEX Binding Buffer A: 50 mM Tris/acetate pH 7.5, 20 mM Mg-acetate, 270 mM KCl, 5 mM DTT, 0.02% BSA, 25 C, 30 min; filter binding (nitrocellulose/nylon) as previously described. The conditions noted are these: protein: recombinant; tags: expressed from pET-HT; label: 5'-32P; helices H1-H3.

Data set [7] concerns the target T1, Gk-S15 (ribosomal protein S15). Nature of the data set: filter binding; Fmax 40%; SELEX Binding Buffer A: 50 mM Tris/acetate pH 7.5, 20 mM Mg-acetate, 270 mM KCl, 5 mM DTT, 0.02% BSA, 25 C, 30 min; filter binding (nitrocellulose/nylon) as previously described. The conditions noted are these: protein: recombinant; tags: expressed from pET-HT; label: 5'-32P.
Data set [8] has the same target. Nature of the data set: filter binding; Fmax 21%; SELEX Binding Buffer A: 50 mM Tris/acetate pH 7.5, 20 mM Mg-acetate, 270 mM KCl, 5 mM DTT, 0.02% BSA, 25 C, 30 min; filter binding (nitrocellulose/nylon) as previously described. Conditions: protein: recombinant; tags: expressed from pET-HT; label: 5'-32P.
The target is the same in data set [9]. The experiment in a line: filter binding; Fmax 55%; SELEX Binding Buffer A: 50 mM Tris/acetate pH 7.5, 20 mM Mg-acetate, 270 mM KCl, 5 mM DTT, 0.02% BSA, 25 C, 30 min; filter binding (nitrocellulose/nylon) as previously described. The conditions noted are these: protein: recombinant; tags: expressed from pET-HT; label: 5'-32P.
Data set [10] shares this target. The experiment in a line: filter binding; Fmax 79%; SELEX Binding Buffer A: 50 mM Tris/acetate pH 7.5, 20 mM Mg-acetate, 270 mM KCl, 5 mM DTT, 0.02% BSA, 25 C, 30 min; filter binding (nitrocellulose/nylon) as previously described. Conditions: protein: recombinant; tags: expressed from pET-HT; label: 5'-32P.
Data set [11] has as its target T2, Tt-S15 (ribosomal protein S15). The experiment in a line: filter binding; Fmax 25%; SELEX Binding Buffer A: 50 mM Tris/acetate pH 7.5, 20 mM Mg-acetate, 270 mM KCl, 5 mM DTT, 0.02% BSA, 25 C, 30 min; filter binding (nitrocellulose/nylon) as previously described. The conditions noted are these: protein: recombinant; tags: expressed from pET-HT; label: 5'-32P.
Data set [12] concerns the target T1, Gk-S15 (ribosomal protein S15). The experiment in a line: filter binding; Fmax 0.36; SELEX Binding Buffer A: 50 mM Tris/acetate pH 7.5, 20 mM Mg-acetate, 270 mM KCl, 5 mM DTT, 0.02% BSA, 25 C, 30 min; filter binding (nitrocellulose/nylon) as previously described. The conditions noted are these: protein: recombinant; tags: expressed from pET-HT; label: 5'-32P.

T2 sequence (Q5SJ76 whole entry): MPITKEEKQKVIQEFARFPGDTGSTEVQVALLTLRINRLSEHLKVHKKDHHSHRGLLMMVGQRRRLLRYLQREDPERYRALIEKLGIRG

B1: 11-5 (structured_RNA)
RNA: UGCGUAACGUACACUAAAGACGGAAGGCCAAAACCUAUGCUUACCCUUUACUUUGGAGUUUUAAAAUGUCUCUAAGUACUGAAGCAACAGCU
As for B1, the Kd in [1] turned out to be 10 ± 1.4 nM.

B2: 11-1-M2 (structured_RNA)
RNA: UUGGUAACGUACACUUCCUUCGCUUAUUCGGAGUAGAUCACGUGAUCAUUCUGUAUGCUUUGGAGUUUUAAAAUGUCUCUAAGUACUGAAGCAACAGCU
For the molecule B2, the Kd in data set [2] is 56.5 ± 5.74 nM.

B3: 11-1-M8 (structured_RNA)
RNA: UGCGUAACGUACACUUCCUUCGCUUAUUCGGAGUAGAUCACGUGAUCAUUCUGUAUGCUUUGGUCUUUUAAAAUGUCUCUAAGUACUGAAGCAACAGCU
B3: the Kd in [3] was 84.5 ± 14.5 nM.

B4: 11-1-M3 (structured_RNA)
RNA: UUGGUAACCGACACUUCCUUCGCUUAUUCGGAGUAGAUCACGUGAUCAUUCUGUAUGCUUUGGAGUUUUAAAAUGUCUCUAAGUACUGAAGCAACAGCU
In the case of B4, the dissociation constant (Kd) in data set [4] amounted to 20.9 ± 6.3 nM.

B5: 11-1 (structured_RNA)
RNA: UGCGUAACGUACACUUCCUUCGCUUAUUCGGAGUAGAUCACGUGAUCAUUCUGUAUGCUUUGGAGUUUUAAAAUGUCUCUAAGUACUGAAGCAACAGCU
For the molecule B5, the values for the Kd in data set [5] and in data set [6] were 0.9 ± 0.02 nM and 94.9 ± 22.5 nM, respectively.

B6: 11-3 (structured_RNA)
RNA: UGCGUAACGUACACUCCGAUGUUACCCGCGCGAGGUCAUUGGUACUCAAUCUAUAUACUUUGGAGUUUUAAAUGUCUCUAAGUACUGAAGCAACAGCU
In the case of B6, in [7], the Kd came out at 20.7 ± 15.2 nM.

B7: 11-4 (structured_RNA)
RNA: UGCGUAACGUACACUGAACAAUCCCAGCGCUCUAUGGAAUCUGCAUCAUCUAUUCUUUGGAGUUUAAAUGUCUCUAAGUACUGAAGCAACAGCU
On to B7, for which the Kd in data set [8] is 8.5 ± 2 nM.

B8: 11-6 (structured_RNA)
RNA: UGCGUAACGUACACUGAAGACCGCGAACUACAAACGUAACUCGGUUCAUUCUAUAUACUUUAGAGUUUUAAAAUGUCUCUAAGUACUGAAGCAACAGCU
For B8, in data set [9], the dissociation constant Kd was 289 ± 121 nM.

B9: 11-2 (structured_RNA)
RNA: UGCGUAACGUACACUCCCUACUCGUGGAUUGGACUCUAUAAUAGAUCAUUCUAUAUACUGUGGAGCUUAAAAUGUCUCUAAGUACUGAAGCAACAGCU
As for B9, the Kd in [10] was found to be 9.7 ± 1.6 nM; in [11], 39 ± 6.27 nM.

B10: 11-1-M4 (structured_RNA)
RNA: UGCGUAACGUACACUUCCUUCGCUUAUUCGGAGUAGAUCACGUGAUCAUUCUGUAUGCUUUGGAG
B10: in data set [12], the dissociation constant (Kd) was 7.7 ± 5.89 nM.
